Assay results taken from paper PMC8629787 (Cellular and Molecular Life Sciences: CMLS, 2021).

Biological target: the molecule itself
Experiment: SEC

B1: BambL, fucose-binding lectin of Burkholderia ambifaria (recombinant, unlabelled) (natural protein)
chain: not shown
  stoichiometry N: 3
